Experimental data reported in paper PMC12719470.

Target: Nanobody-161 IgG1 Y105G
Experiment: BLI; 30 nM Nanobody-161 IgG1 or mutant immobilised on Protein A biosensors (Gator); 4800 nM-300 nM TNFR2-His in Q Buffer (PBS, 0.02% Tween 20, 0.2% BSA); 25 °C; association 120 s, dissociation 180 s; global 1:1 Langmuir fit

Sequence of TNFR2-His protein (P20333 23-461): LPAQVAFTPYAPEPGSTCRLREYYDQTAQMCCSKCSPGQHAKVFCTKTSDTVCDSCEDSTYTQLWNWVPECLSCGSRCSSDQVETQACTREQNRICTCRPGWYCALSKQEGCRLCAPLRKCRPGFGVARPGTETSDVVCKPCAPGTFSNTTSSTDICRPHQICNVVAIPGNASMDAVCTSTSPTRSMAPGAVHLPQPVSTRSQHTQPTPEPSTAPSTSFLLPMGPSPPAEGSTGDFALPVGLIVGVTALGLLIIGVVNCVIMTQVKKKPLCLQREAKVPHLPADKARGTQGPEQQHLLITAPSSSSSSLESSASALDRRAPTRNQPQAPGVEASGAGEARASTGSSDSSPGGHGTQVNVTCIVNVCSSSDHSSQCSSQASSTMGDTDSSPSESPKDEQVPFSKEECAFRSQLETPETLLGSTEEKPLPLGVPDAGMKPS
Sequence of Nanobody-161 IgG1 Y105G (heavy, as listed by the source): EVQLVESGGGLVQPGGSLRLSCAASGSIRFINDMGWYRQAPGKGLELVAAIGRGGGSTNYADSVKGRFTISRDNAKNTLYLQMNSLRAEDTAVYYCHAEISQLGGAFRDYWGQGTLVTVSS

“TNFR2-His protein (from UniProt P20333 23-461) (receptor)” was tested, and the Kd was 214 µM, the koff was 0.0917 s⁻¹ and the kon was 429 M⁻¹ s⁻¹.
